*1 amine or outer side, *2 acyl side, *3 side chain or, on linkers, in order; H or OH if unused. Where no end group is shown, it is not given here. Side-chain parts run from the residue outwards. [ ]: non-standard residue; d: D form. The star is where a group is joined. γGlu = O=C(O)[C@H](CCC(=O)[*:2])N[*:1]; Palmitoyl = CCCCCCCCCCCCCCCC(=O)*; Orn = NCCC[C@H](N)C(=O)O; Dab = NCC[C@H](N)C(=O)O; Dap = NC[C@H](N)C(=O)O
B1: SEQ ID NO: (90) (peptide)
peptide: H[dS]QGTFTSDLSKQMESRRAQDFIEWLKSGGPSSGAPPPS[Dap]([γGlu-Palmitoyl])-NH2
modifications: N-terminus assumed
SMILES: CCCCCCCCCCCCCCCC(=O)N[C@@H](CCC(=O)NC[C@H](NC(=O)[C@H](CO)NC(=O)[C@@H]1CCCN1C(=O)[C@@H]1CCCN1C(=O)[C@@H]1CCCN1C(=O)[C@H](C)NC(=O)CNC(=O)[C@H](CO)NC(=O)[C@H](CO)NC(=O)[C@@H]1CCCN1C(=O)CNC(=O)CNC(=O)[C@H](CO)NC(=O)[C@H](CCCCN)NC(=O)[C@H](CC(C)C)NC(=O)[C@H](Cc1c[nH]c2ccccc12)NC(=O)[C@H](CCC(=O)O)NC(=O)[C@@H](NC(=O)[C@H](Cc1ccccc1)NC(=O)[C@H](CC(=O)O)NC(=O)[C@H](CCC(N)=O)NC(=O)[C@H](C)NC(=O)[C@H](CCCNC(=N)N)NC(=O)[C@H](CCCNC(=N)N)NC(=O)[C@H](CO)NC(=O)[C@H](CCC(=O)O)NC(=O)[C@H](CCSC)NC(=O)[C@H](CCC(N)=O)NC(=O)[C@H](CCCCN)NC(=O)[C@H](CO)NC(=O)[C@H](CC(C)C)NC(=O)[C@H](CC(=O)O)NC(=O)[C@H](CO)NC(=O)[C@@H](NC(=O)[C@H](Cc1ccccc1)NC(=O)[C@@H](NC(=O)CNC(=O)[C@H](CCC(N)=O)NC(=O)[C@@H](CO)NC(=O)[C@@H](N)Cc1c[nH]cn1)[C@@H](C)O)[C@@H](C)O)[C@@H](C)CC)C(N)=O)C(=O)O
B2: SEQ ID NO: (92) (peptide)
peptide: H[dS]QGTFTSDLSKQMESRRAQDFIEWLKEGGPSSGRPPPSK([γGlu-Palmitoyl])-NH2
modifications: N-terminus assumed
SMILES: CCCCCCCCCCCCCCCC(=O)N[C@@H](CCC(=O)NCCCC[C@H](NC(=O)[C@H](CO)NC(=O)[C@@H]1CCCN1C(=O)[C@@H]1CCCN1C(=O)[C@@H]1CCCN1C(=O)[C@H](CCCNC(=N)N)NC(=O)CNC(=O)[C@H](CO)NC(=O)[C@H](CO)NC(=O)[C@@H]1CCCN1C(=O)CNC(=O)CNC(=O)[C@H](CCC(=O)O)NC(=O)[C@H](CCCCN)NC(=O)[C@H](CC(C)C)NC(=O)[C@H](Cc1c[nH]c2ccccc12)NC(=O)[C@H](CCC(=O)O)NC(=O)[C@@H](NC(=O)[C@H](Cc1ccccc1)NC(=O)[C@H](CC(=O)O)NC(=O)[C@H](CCC(N)=O)NC(=O)[C@H](C)NC(=O)[C@H](CCCNC(=N)N)NC(=O)[C@H](CCCNC(=N)N)NC(=O)[C@H](CO)NC(=O)[C@H](CCC(=O)O)NC(=O)[C@H](CCSC)NC(=O)[C@H](CCC(N)=O)NC(=O)[C@H](CCCCN)NC(=O)[C@H](CO)NC(=O)[C@H](CC(C)C)NC(=O)[C@H](CC(=O)O)NC(=O)[C@H](CO)NC(=O)[C@@H](NC(=O)[C@H](Cc1ccccc1)NC(=O)[C@@H](NC(=O)CNC(=O)[C@H](CCC(N)=O)NC(=O)[C@@H](CO)NC(=O)[C@@H](N)Cc1c[nH]cn1)[C@@H](C)O)[C@@H](C)O)[C@@H](C)CC)C(N)=O)C(=O)O
B3: SEQ ID NO: (88) (peptide)
peptide: H[dS]QGTFTSDLSKQMESRRAQDFIEWLKSGGPSSGAPPPS[Orn]([γGlu-Palmitoyl])-NH2
modifications: N-terminus assumed
SMILES: CCCCCCCCCCCCCCCC(=O)N[C@@H](CCC(=O)NCCC[C@H](NC(=O)[C@H](CO)NC(=O)[C@@H]1CCCN1C(=O)[C@@H]1CCCN1C(=O)[C@@H]1CCCN1C(=O)[C@H](C)NC(=O)CNC(=O)[C@H](CO)NC(=O)[C@H](CO)NC(=O)[C@@H]1CCCN1C(=O)CNC(=O)CNC(=O)[C@H](CO)NC(=O)[C@H](CCCCN)NC(=O)[C@H](CC(C)C)NC(=O)[C@H](Cc1c[nH]c2ccccc12)NC(=O)[C@H](CCC(=O)O)NC(=O)[C@@H](NC(=O)[C@H](Cc1ccccc1)NC(=O)[C@H](CC(=O)O)NC(=O)[C@H](CCC(N)=O)NC(=O)[C@H](C)NC(=O)[C@H](CCCNC(=N)N)NC(=O)[C@H](CCCNC(=N)N)NC(=O)[C@H](CO)NC(=O)[C@H](CCC(=O)O)NC(=O)[C@H](CCSC)NC(=O)[C@H](CCC(N)=O)NC(=O)[C@H](CCCCN)NC(=O)[C@H](CO)NC(=O)[C@H](CC(C)C)NC(=O)[C@H](CC(=O)O)NC(=O)[C@H](CO)NC(=O)[C@@H](NC(=O)[C@H](Cc1ccccc1)NC(=O)[C@@H](NC(=O)CNC(=O)[C@H](CCC(N)=O)NC(=O)[C@@H](CO)NC(=O)[C@@H](N)Cc1c[nH]cn1)[C@@H](C)O)[C@@H](C)O)[C@@H](C)CC)C(N)=O)C(=O)O
B4: SEQ ID NO: (91) (peptide)
peptide: H[dS]QGTFTSDLSKQMESRRARLFIEWLKSGGPSSGAPPPSK([γGlu-Palmitoyl])-NH2
modifications: N-terminus assumed
SMILES: CCCCCCCCCCCCCCCC(=O)N[C@@H](CCC(=O)NCCCC[C@H](NC(=O)[C@H](CO)NC(=O)[C@@H]1CCCN1C(=O)[C@@H]1CCCN1C(=O)[C@@H]1CCCN1C(=O)[C@H](C)NC(=O)CNC(=O)[C@H](CO)NC(=O)[C@H](CO)NC(=O)[C@@H]1CCCN1C(=O)CNC(=O)CNC(=O)[C@H](CO)NC(=O)[C@H](CCCCN)NC(=O)[C@H](CC(C)C)NC(=O)[C@H](Cc1c[nH]c2ccccc12)NC(=O)[C@H](CCC(=O)O)NC(=O)[C@@H](NC(=O)[C@H](Cc1ccccc1)NC(=O)[C@H](CC(C)C)NC(=O)[C@H](CCCNC(=N)N)NC(=O)[C@H](C)NC(=O)[C@H](CCCNC(=N)N)NC(=O)[C@H](CCCNC(=N)N)NC(=O)[C@H](CO)NC(=O)[C@H](CCC(=O)O)NC(=O)[C@H](CCSC)NC(=O)[C@H](CCC(N)=O)NC(=O)[C@H](CCCCN)NC(=O)[C@H](CO)NC(=O)[C@H](CC(C)C)NC(=O)[C@H](CC(=O)O)NC(=O)[C@H](CO)NC(=O)[C@@H](NC(=O)[C@H](Cc1ccccc1)NC(=O)[C@@H](NC(=O)CNC(=O)[C@H](CCC(N)=O)NC(=O)[C@@H](CO)NC(=O)[C@@H](N)Cc1c[nH]cn1)[C@@H](C)O)[C@@H](C)O)[C@@H](C)CC)C(N)=O)C(=O)O

These binders were tested against human GLP-1 receptor (human, UniProt P43220 24-463) (assay: cell-based or functional assay).
In the case of B1, the “EC50 hGLP-1R (cAMP formation)” value is reported as 0.0049 nM.
For H[dS]QGTFTSDLSKQMESRRAQDFIEWLKSGGPSSGAPPPSK([γGlu-aleuritolyl])-NH2 [SEQ ID NO: (93)], the “EC50 hGLP-1R (cAMP formation)” value was 0.188 nM.
For B2, the “EC50 hGLP-1R (cAMP formation)” value was 0.006 nM.
B3 was tested, and the “EC50 hGLP-1R (cAMP formation)” value was 0.0051 nM.
H[dS]QGTFTSDLSKQMESRRAQDFIEWLKSGGPSSGAPPPS[Dab]([γGlu-Palmitoyl])-NH2 [SEQ ID NO: (89)] was tested, and the “EC50 hGLP-1R (cAMP formation)” value was 0.0059 nM.
In the case of B4, the “EC50 hGLP-1R (cAMP formation)” value is reported as 0.0067 nM.
With HSQGTFTSDLSKQMEERRAQDFIEWLKNGGPSSGAPPPS-NH2 [SEQ ID NO: (15)] the “EC50 hGLP-1R (cAMP formation)” value was 0.0352 nM.
For H[dS]QGTFTSDLSKQMESRRAQDFIEWLKSGGPSSGAPPPSK([γGlu-γGlu-Palmitoyl])-NH2 [SEQ ID NO: (97)], the “EC50 hGLP-1R (cAMP formation)” value was 0.0047 nM.

Each binder was assayed against human glucagon receptor (human, UniProt P47871 26-477) (assay: cell-based or functional assay).
human glucagon receptor, sequence (P47871 26-477): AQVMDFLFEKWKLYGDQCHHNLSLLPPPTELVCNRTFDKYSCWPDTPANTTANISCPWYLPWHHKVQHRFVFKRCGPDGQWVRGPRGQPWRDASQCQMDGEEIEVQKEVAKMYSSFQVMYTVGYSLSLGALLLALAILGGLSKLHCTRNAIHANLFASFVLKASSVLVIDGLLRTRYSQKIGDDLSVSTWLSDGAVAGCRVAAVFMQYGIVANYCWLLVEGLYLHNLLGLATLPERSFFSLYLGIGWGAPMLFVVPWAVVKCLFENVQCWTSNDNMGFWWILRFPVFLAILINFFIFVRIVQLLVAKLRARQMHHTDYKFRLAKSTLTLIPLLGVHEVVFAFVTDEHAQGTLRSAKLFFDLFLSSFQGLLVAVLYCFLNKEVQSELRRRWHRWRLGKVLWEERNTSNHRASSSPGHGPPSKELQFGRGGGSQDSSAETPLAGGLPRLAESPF
With B1 the “EC50 hGlucagonR (cAMP formation)” value was 0.0336 nM.
For H[dS]QGTFTSDLSKQMESRRAQDFIEWLKSGGPSSGAPPPSK([γGlu-aleuritolyl])-NH2 [SEQ ID NO: (93)], the “EC50 hGlucagonR (cAMP formation)” value was 1.87 nM.
For B2, the “EC50 hGlucagonR (cAMP formation)” value was 0.038 nM.
In the case of B3, the “EC50 hGlucagonR (cAMP formation)” value is reported as 0.0182 nM.
H[dS]QGTFTSDLSKQMESRRAQDFIEWLKSGGPSSGAPPPS[Dab]([γGlu-Palmitoyl])-NH2 [SEQ ID NO: (89)] was tested, and the “EC50 hGlucagonR (cAMP formation)” value was 0.0198 nM.
With B4 the “EC50 hGlucagonR (cAMP formation)” value was 0.121 nM.
For HSQGTFTSDLSKQMEERRAQDFIEWLKNGGPSSGAPPPS-NH2 [SEQ ID NO: (15)], the “EC50 hGlucagonR (cAMP formation)” value was 0.538 nM.
H[dS]QGTFTSDLSKQMESRRAQDFIEWLKSGGPSSGAPPPSK([γGlu-γGlu-Palmitoyl])-NH2 [SEQ ID NO: (97)] was tested, and the “EC50 hGlucagonR (cAMP formation)” value was 0.0363 nM.
